In the assay the target is T1, EpCAM expressed on human cancer cell lines (H747, HCC827, HCT116) (human (human cancer cell lines), UniProt P16422 24-314).
T1 construct: also called Epithelial cell adhesion molecule; cell expressed EPCAM
T1 sequence: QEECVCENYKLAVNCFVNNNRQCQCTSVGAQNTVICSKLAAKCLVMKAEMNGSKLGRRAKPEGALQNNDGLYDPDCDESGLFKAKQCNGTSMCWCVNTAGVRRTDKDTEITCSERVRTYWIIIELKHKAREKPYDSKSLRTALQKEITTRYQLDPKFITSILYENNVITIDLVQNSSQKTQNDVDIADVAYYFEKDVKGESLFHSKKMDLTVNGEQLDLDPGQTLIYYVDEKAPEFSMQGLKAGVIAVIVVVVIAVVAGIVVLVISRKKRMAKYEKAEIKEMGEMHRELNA
Put plainly: flow cytometry on H747 cells, MFI fold over background. On the procedure: Human cancer cell lines expressing EPCAM were used to assess tumor antigen binding of TriNKETs derived from EPCAM targeting clone MT110 in F4 and F3′ formats. The human cell lines H747, HCC827 and HCT116 were used to assess binding of TriNKETs and mAb to cell expressed EPCAM. TriNKETs or mAb were diluted and incubated with the respective cells. Binding was detected using a fluorophore conjugated anti-human IgG secondary antibody. Cells were analyzed by flow cytometry, binding MFI to cell expressed EPCAM was normalized to human recombinant IgG1 stained controls to obtain fold over background values.

Results on two molecules are retold here after patent US20200277383A1 (DRAGONFLY THERAPEUTICS, published 2020).

B1: parental monoclonal antibody (mAb) targeting EPCAM (clone MT110) (antibody, V domains shown)
VH: VQLLEQSGAELVRPGTSVKISCKASGYAFTNYWLGWVKQRPGHGLEWIGDIFPGSGNIHYNEKFKGKATLTADKSSSTAYMQLSSLTFEDSAVYFCARLRNWDEPMDYWGQGTTVTVSS
VL: ELVMTQSPSSLTVTAGEKVTMSCKSSQSLLNSGNQKNYLTWYQQKPGQPPKLLIYWASTRESGVPDRFTGSGSGTDFTLTISSVQAEDLAVYYCQNDYSYPLTFGAGTKLEIKG
notes: detected with an anti-human IgG secondary antibody; also called parental mAb; Solitomab (MT110)
As to B1, the binding result is “binds”.

B2: A49-F4-TriNKET-MT110 (other)
heavy 1: EVQLLEQSGAELVRPGTSVKISCKASGYAFTNYWLGWVKQRPGHGLEWIGDIFPGSGNIHYNEKFKGKATLTADKSSSTAYMQLSSLTFEDSAVYFCARLRNWDEPMDYWGQGTTVTVSSASTKGPSVFPLAPSSKSTSGGTAALGCLVKDYFPEPVTVSWNSGALTSGVHTFPAVLQSSGLYSLSSVVTVPSSSLGTQTYICNVNHKPSNTKVDKKVEPKSCDKTHTCPPCPAPELLGGPSVFLFPPKPKDTLMISRTPEVTCVVVDVSHEDPEVKFNWYVDGVEVHNAKTKPREEQYNSTYRVVSVLTVLHQDWLNGKEYKCKVSNKALPAPIEKTISKAKGQPREPRVYTLPPCRDELTKNQVSLTCLVKGFYPSDIAVEWESNGQPENNYKTTPPVLVSDGSFTLYSKLTVDKSRWQQGNVFSCSVMHEALHNHYTQKSLSLSPGSGSGGGGSDIQMTQSPSSVSASVGDRVTITCRASQGISSWLAWYQQKPGKAPKLLIYAASSLQSGVPSRFSGSGSGTDFTLTISSLQPEDFATYYCQQGVSFPRTFGCGTKVEIKGGGGSGGGGSGGGGSGGGGSEVQLVESGGGLVKPGGSLRLSCAASGFTFSSYSMNWVRQAPGKCLEWVSSISSSSSYIYYADSVKGRFTISRDNAKNSLYLQMNSLRAEDTAVYYCARGAPMGAAAGWFDPWGQGTLVTVSS
heavy 2: EVQLLEQSGAELVRPGTSVKISCKASGYAFTNYWLGWVKQRPGHGLEWIGDIFPGSGNIHYNEKFKGKATLTADKSSSTAYMQLSSLTFEDSAVYFCARLRNWDEPMDYWGQGTTVTVSSASTKGPSVFPLAPSSKSTSGGTAALGCLVKDYFPEPVTVSWNSGALTSGVHTFPAVLQSSGLYSLSSVVTVPSSSLGTQTYICNVNHKPSNTKVDKKVEPKSCDKTHTCPPCPAPELLGGPSVFLFPPKPKDTLMISRTPEVTCVVVDVSHEDPEVKFNWYVDGVEVHNAKTKPREEQYNSTYRVVSVLTVLHQDWLNGKEYKCKVSNKALPAPIEKTISKAKGQPREPQVCTLPPSRDELTENQVSLTCLVKGFYPSDIAVEWESNGQPENNYKTTPPVLDSDGSFFLYSWLTVDKSRWQQGNVFSCSVMHEALHNHYTQKSLSLSPG
light: ELVMTQSPSSLTVTAGEKVTMSCKSSQSLLNSGNQKNYLTWYQQKPGQPPKLLIYWASTRESGVPDRFTGSGSGTDFTLTISSVQAEDLAVYYCQNDYSYPLTFGAGTKLEIKGRTVAAPSVFIFPPSDEQLKSGTASVVCLLNNFYPREAKVQWKVDNALQSGNSQESVTEQDSKDSTYSLSSTLTLSKADYEKHKVYACEVTHQGLSSPVTKSFNRGEC
notes: also called EPCAM-targeting F4-TriNKET
Consider B2, for which the binding result is listed as “binds”.
